For this test, the system named is miR-17. The test can be described thus: Northern blot of control miRNA miR-17. It is filed as cell-based, mouse. Conditions: BDNF-treated (30 min) neurons. As to the method:
Northern blots were carried out as described (Hwang et al., 2007), using the following LNA probes from Exiqon: Let-7a (5′ […] 3′; SEQ ID NO: 1), pre-Let-7a (5′ GTGGGTGTGACCCTA 3′; SEQ ID NO: 2), miR-17 (5′ […] 3′; SEQ ID NO: 3) and quantified by phosphoimaging.

The values that follow come from patent US20150148405A1, “Expression Construct for a Lin28-Resistant Let-7 Precursor MicroRNA” (THE JOHNS HOPKINS UNIVERSITY, priority 2012, published 2015).

B1: BDNF: brain-derived neurotrophic factor, a neurotrophin used to stimulate hippocampal neurons (protein, UniProt P23560 19-247, looked up)
Neurotrophic factor BDNF …: APMKEANIRGQGGLAYPGVRTHGTLESVNGPKAGSRGLTSLADTFEHVIEELLDEDQKVRPNEENNKDADLYTSRVMLSSQVPLEPPLLFLLEEYKNYLDAANMSMRVRRHSDPARRGELSVCDSISEWVTAADKKTAVDMSGGTVTVLEKVPVSKGQLKQYFYETKCNPMGYTKEGCRGIDKRHWNSQCRTTQSYVRALTMDSKKRIGWRFIRIDTSCVCTLTIKRGR
Turning to B1, the “mature miR-17 level” value is “modestly increased”.
